Test results as given in patent US20090325290A1 (published 2009).
Where a chain is given by its changes, count along the chain named.

T1: human MHC class II DR protein (DRA*0101/DRB1*0401), purified from PRIESS cells (human, UniProt P01903 26-254; P01911 30-266, limits assumed)
T1 construct: mature; 'mature' is my reading; also called HLA-DR protein; MHCII
T1 MHC II alpha: not shown
T1 MHC II beta: not shown

T2: HLA-DR (DRA*0101/DRB1*0401) on the surface of PRIESS cells (human, UniProt P01903 26-254; P01911 30-266)
T2 MHC II alpha: not shown
T2 MHC II beta: not shown

B1: MS-GPC-8-6-47 (Fab form) (Fab, V domains shown)
VH: QVQLKESGPALVKPTQTLTLTCTFSGFSLSTSGVGVGWIRQPPGKALEWLALIDWDDDKYYSTSLKTRLTISKDTSKNQVVLTMTNMDPVDTATYYCARSPRYRGAFDYWGQGTLVTVSS
VL: DIVLTQPPSVSGAPGQRVTISCSGSESNIGSNYVSWYQQLPGTAPKLLIYDNNQRPSGVPDRFSGSKSGTSASLAITGLQSEDEADYYCQSYDYDHYVFGGGTKLTVLG
notes: Fab: VH-CH1-FLAG-STREP tag II
B2: MS-GPC-8 (Fab form) (Fab, V domains shown)
VH: B1 VH
VL: B1 VL with E26S, Y94M, D95P, H96Q, Y97A
notes: Fab: VH-CH1-FLAG-STREP tag II; also called B8-Fab; B8
B3: MS-GPC-8-6 (Fab form) (Fab, V domains shown)
VH: B1 VH
VL: B1 VL with E26S
notes: Fab: VH-CH1-FLAG-STREP tag II
B4: MS-GPC-8-6-2 (Fab form) (Fab, V domains shown)
VH: B1 VH
VL: B1 VL with S35H
B5: MS-GPC-8-6-13 (Fab form) (Fab, V domains shown)
VH: B1 VH
VL: B1 VL with S31A, S35T
notes: Fab: VH-CH1-FLAG-STREP tag II; also called 305D3
B6: MS-GPC-8-6-13 (IgG4 form) (antibody, V domains shown)
VH: B1 VH
VL: B1 VL with S31A, S35T
notes: Human IgG4 (constant region EMBL K01316), lambda constant region (EMBL M18645), from CHO-K1 cells; also called 305D3
B7: MS-GPC-8-6-19 (Fab form) (Fab, V domains shown)
VH: B1 VH
VL: B1 VL with S35A
B8: MS-GPC-8-6-27 (Fab form) (Fab, V domains shown)
VH: B1 VH
VL: B1 VL with E26D, S31A, S35T
notes: Fab: VH-CH1-FLAG-STREP tag II
B9: MS-GPC-8-10-57 (Fab form) (Fab, V domains shown)
VH: B1 VH
VL: B1 VL with S31N, S35Q, Y94L, D95I, H96R, Y97H
notes: Fab: VH-CH1-FLAG-STREP tag II; also called 1C7277
B10: MS-GPC-8-10-57 (IgG4 form) (antibody, V domains shown)
VH: B1 VH
VL: B1 VL with S31N, S35Q, Y94L, D95I, H96R, Y97H
notes: Human IgG4 (constant region EMBL K01316), lambda constant region (EMBL M18645), from CHO-K1 cells; also called 1C7277
B11: MS-GPC-8-27-7 (Fab form) (Fab, V domains shown)
VH: B1 VH
VL: B1 VL with S31N, S35G, Y94M, D95N, H96V, Y97H
notes: Fab: VH-CH1-FLAG-STREP tag II
B12: MS-GPC-8-27-10 (Fab form) (Fab, V domains shown)
VH: B1 VH
VL: B1 VL with S31A, S35N, Y94M, D95N, H96V, Y97H
notes: Fab: VH-CH1-FLAG-STREP tag II
B13: MS-GPC-8-27-41 (Fab form) (Fab, V domains shown)
VH: B1 VH
VL: B1 VL with S31N, S35Q, Y94M, D95N, H96V, Y97H
notes: Fab: VH-CH1-FLAG-STREP tag II; also called 1D09C3
B14: MS-GPC-8-27-41 (IgG4 form) (antibody, V domains shown)
VH: B1 VH
VL: B1 VL with S31N, S35Q, Y94M, D95N, H96V, Y97H
notes: Human IgG4 (constant region EMBL K01316), lambda constant region (EMBL M18645), from CHO-K1 cells; also called 1D09C3
B15: MS-GPC-8-6-2 (IgG form) (antibody, V domains shown)
VH: B1 VH
VL: B1 VL with S35H
B16: MS-GPC-8-6 (IgG form) (antibody, V domains shown)
VH: B1 VH
VL: B1 VL with E26S
B17: MS-GPC-1 (Fab form) (Fab, V domains shown)
VH: B1 VH with S100Q, P101Y, R102G, Y103H, A106G, Y109H
VL: B1 VL with E26S, Y94F, D95N, H96E, Y97S
B18: MS-GPC-10 (Fab form) (Fab, V domains shown)
VH: B1 VH with S100Q, P101L, R102H, A106G, Y109L
VL: B1 VL with E26S, Y94L, D95T, H96M, Y97G
B19: MS-GPC-1 (scFv form) (scFv, V domains shown)
VH: B1 VH with Q1E, S100Q, P101Y, R102G, Y103H, A106G, Y109H
VL: B1 VL with E26S, Y94F, D95N, H96E, Y97S

These binders were tested against human-mouse chimeric molecule DR-IE (human; mouse) (assay: cell-based or functional assay).

Binder	IC50, inhibition of IL-2 secretion of T-Hyb 1 cells	Maximum inhibition(%) of IL-2 secretion
B1	2.6 nM ((Fab)/2)	100%
B2	110 nM ((Fab)/2)	100%
B3	20 nM ((Fab)/2)	100%
B4	4.7 nM ((Fab)/2)	100%
B5	2.1 nM ((Fab)/2)	100%
B6	0.42 nM	100%
B7	5.3 nM ((Fab)/2)	100%
B8	3 nM ((Fab)/2)	100%
B9	2.9 nM ((Fab)/2)	100%
B10	0.31 nM	100%
B11	5.9 nM ((Fab)/2)	100%
B12	7.3 nM ((Fab)/2)	100%
B13	3.6 nM ((Fab)/2)	100%
B14	0.28 nM	100%
B15	3.6 nM	100%
B16	6.7 nM	100%

Molecular target: T1, human MHC class II DR protein …
Assay: BiaCore, IgG4
Method: The affinities for anti-HLA antibody fragments of the invention were measured as follows. All measurements were conducted in HBS buffer (20 mM HEPES, 150 mM NaCl, pH 7.4) at a flow rate of 20 μl/min at 25° C. on a BIAcore3000 instrument (Biacore AB, Sweden). MHC class II DR protein (prepared as example 1) was diluted in 100 mM sodium acetate pH 4.5 to a concentration of […], and coupled to a CM5 chip (Biacore AB) using standard EDC-NHS coupling chemistry with subsequent ethanolamine treatment as manufacturers directions. The coating density of MHCII was adjusted to between 500 and 4000 RU. Affinities were measured by injection of 5 different concentrations of the different antibodies and using the standard software of the Biacore instrument. Regeneration of the coupled surface was achieved using 10 mM glycine pH 2.3 and 7.5 mM NaOH.

Binder	koff	kon
B6	0.00033 s⁻¹	
B10		11000 M⁻¹ s⁻¹
B14		71000 M⁻¹ s⁻¹

These binders were tested against T3, human apotransferrin (human, UniProt P02787 20-698) (assay: ELISA, antigen coated at 10 µg/well).
T3 construct: negative control protein
Method: (§1) After washing in PBS the anti-human IgG F(ab)₂-peroxidase-conjugate at a 1:10,000 dilution in TBS (supplemented with 5% w/v non-fat dry-milk/0.05% v/v Tween 20) was added to each well for 1 h. Final washes were carried out in PBS followed the addition the substrate POD (Roche). Color-development was read at 370 nm in an ELISA-Reader.

Binder	binding result
B1	no binding (tested: 100 ng/well)
B2	no binding (tested: 100 ng/well)
B3	no binding (tested: 100 ng/well)
B5	no binding (tested: 100 ng/well)
B8	no binding (tested: 100 ng/well)
B9	no binding (tested: 100 ng/well)
B11	no binding (tested: 100 ng/well)
B12	no binding (tested: 100 ng/well)
B13	no binding (tested: 100 ng/well)

The binders below were run against T4, bovine serum albumine (bovine, UniProt P02769 25-607) (assay: ELISA, antigen coated at 10 µg/well).
T4 construct: negative control protein; also called BSA
Method: as §1

Binder	binding result
B2	no binding (tested: 100 ng/well)
B3	no binding (tested: 100 ng/well)
B11	no binding (tested: 100 ng/well)
B12	no binding (tested: 100 ng/well)

Each binder was assayed against T5, HLA-DR on the human B-lymphoblastoid cell line LG-2 (human) (assay: cell-based or functional assay).

Binder	% killing of LG-2 cells, 50 nM, 4 h
B6	82%
B10	88%
B14	87%

Each binder was assayed against HLA-DR antigen on the surface of HLA-DR positive cells (tumor cell lines other than PRIESS and LG-2, normal B … (human)) (assay: cell-based or functional assay).

Binder	EC50 of cell killing, IgG form
B10	1.2 nM
B14	1.2 nM

Molecular target: T2, HLA-DR (DRA*0101/DRB1*0401) on the …
Assay: cell-based or functional assay

Binder	EC50 of cell killing, as bivalent cross-linked (Fab)dimer	EC50 of cell killing, cross-linked Fab, as monovalent fragment
B17	< 60 nM	< 120 nM
B2	< 60 nM	< 120 nM
B18	< 60 nM	< 120 nM

Molecular target: human-mouse chimeric molecule DR-IE (human; mouse)
Assay: cell-based or functional assay
Remark: another data set of the same source

Binder	IC50 for inhibition of T cell proliferation
B10	11 nM
B14	20 nM

Molecular target: T1, human MHC class II DR protein …
Assay: SPR (BIAcore), scFv, chip density 500RU MHCII

Binder	Kd	koff	kon
B19	1500 nM	0.061 s⁻¹	41300 M⁻¹ s⁻¹

Each binder was assayed against T5, HLA-DR on the human B-lymphoblastoid … (assay: FACS on LG-2 cells, competitor 1-1C4).
Method: Subsequently murine antibodies were added and the murine antibodies were detected.
The whole staining procedure was performed on ice. 1×10⁷ cells of the human B-lymphoblastoid cell line LG-2 was preblocked for 20 min. in PBS containing 2% FCS and 35 μg/ml Guinea Pig IgG (“FACS-Buffer”). […] Subsequently, 4 ml of PBS were added to each vial, the vials were centrifuged at 300×g for 8 min, and the cell pellet resuspended in 50 μl FACS buffer containing a 1 to 25 dilution of a goat-anti-murine Ig-FITC conjugate at 20 μg/ml final concentration (BD Pharmingen, Torrey Pines, Calif., USA). Cells were incubated light-protected for 30 min. Afterwards, cells were washed with 4 ml PBS, centrifuged as above and resuspended in 500 μl PBS for analysis in the flow cytometer (FACS Calibur, BD Immunocytometry Systems, San Jose, Calif., USA).

Binder	reduction of mean fluorescence intensity of the murine antibody
B9	> 90%
B10	> 90%
B14	> 90%

Molecular target: T5, HLA-DR on the human B-lymphoblastoid …
Assay: cell-based or functional assay
Remark: another data set of the same source

Binder	EC50 of cell killing, LG2, cross-linked Fab as bivalent agent	EC50 of cell killing, LG2, IgG4
B9	7.2 nM	
B10		1 nM
B14		1.23 nM

Molecular target: T1, human MHC class II DR protein …
Assay: SPR (BIAcore), Fab, 3 chips (500, 4000, 3000RU)

Binder	Kd	kon
B3	8 nM	120000 M⁻¹ s⁻¹
